Data as given in patent US20090202574A1, “METHODS OF IMMUNE OR HAEMATOLOGICAL ENHANCEMENT, INHIBITING TUMOUR FORMATION OR GROWTH, AND TREATING OR PREVENTING CANCER” (priority 2004, published 2009).

B1: natural bLf: bovine lactoferrin extract from skim milk with natural levels of iron-saturation of approximately 5 to 15% (protein, UniProt P24627 20-708, looked up)
Lactotransferrin: APRKNVRWCTISQPEWFKCRRWQWRMKKLGAPSITCVRRAFALECIRAIAEKKADAVTLDGGMVFEAGRDPYKLRPVAAEIYGTKESPQTHYYAVAVVKKGSNFQLDQLQGRKSCHTGLGRSAGWIIPMGILRPYLSWTESLEPLQGAVAKFFSASCVPCIDRQAYPNLCQLCKGEGENQCACSSREPYFGYSGAFKCLQDGAGDVAFVKETTVFENLPEKADRDQYELLCLNNSRAPVDAFKECHLAQVPSHAVVARSVDGKEDLIWKLLSKAQEKFGKNKSRSFQLFGSPPGQRDLLFKDSALGFLRIPSKVDSALYLGSRYLTTLKNLRETAEEVKARYTRVVWCAVGPEEQKKCQQWSQQSGQNVTCATASTTDDCIVLVLKGEADALNLDGGYIYTAGKCGLVPVLAENRKSSKHSSLDCVLRPTEGYLAVAVVKKANEGLTWNSLKDKKSCHTAVDRTAGWNIPMGLIVNQTGSCAFDEFFSQSCAPGADPKSRLCALCAGDDQGLDKCVPNSKEKYYGYTGAFRCLAEDVGDVAFVKNDTVWENTNGESTADWAKNLNREDFRLLCLDGTRKPVTEAQSCHLAVAPNHAVVSRSDRAAHVKQVLLHQQALFGKNGKNCPDKFCLFKSETKNLLFNDNTECLAKLGGRPTYEEYLGTEYVTAIANLKKCSTSPLLEACAFLTR
B2: bovine lactoferrin: bovine lactoferrin as reported in WO 03/099323, compared with recombinant human lactoferrin (protein)
chain: B1 Lactotransferrin
modifications: Bovine Lactoferrin
notes: bovine lactoferrin as reported in WO 03/099323, compared with recombinant human lactoferrin

Tests used:
[1] = test system: EL-4 tumours; assay: EL-4 tumour growth in mice (s.c. flank tumour model); assay type: in vivo, C57BL/6 mice; conditions: Example 1; oral diet; day 42; vs control diet
[2] = test system: IL-18; assay: IL-18 production by cultured intestinal loops; assay type: cell-based, mice; conditions: Example 20; 400 and 800 μg/ml; 48 h; vs bovine serum albumin control protein
Description: Cytokine levels in the supernatants of homogenates of the small intestine were determined using a “sandwich” ELISA kit (Endogen, Woburn, Mass.). They were detected within standard curve ranges of 15-375 pg/ml for IL-4, 0-2450 pg/ml for IL-5, 15-1000 pg/ml for TNF-α, 0-3000 pg/ml for IFN-γ, 37-3000 pg/ml for IL-10, 31.3-2000 pg/ml for IL-12, and 31.3-2000 pg/ml for IL-18, respectively. Quantification of nitrite, indicative of NO production, was carried out by the Griess reaction (Sigma, USA). The results are expressed as the mean nitrite concentration (μM)±SD.
100% Fe-saturated Lf, natural Lf (less than 20% iron saturated), and bovine serum albumin control were added at 400 and 800 μg/ml to intestinal loops (2.5 cm segments of the small intestine) prepared from healthy 6 to 7 week-old female mice, which were kept in culture for 48 h. IL-18 levels released by the intestinal loops, and present in the supernatants of homogenates of the small intestine were determined using a “sandwich” ELISA kit as described above.

[3] = test system: EL-4 target cells; assay: Anti-tumour CTL and/or NK cell cytolytic activity of splenocytes against EL-4 target cells; conditions: Example 1; splenocytes at day 42; vs control diet
Description: Splenocytes were harvested 28 days following tumour cell injection, as specified. They were incubated at 37° C. with EL-4 target cells in graded E:T ratios in 96-well round-bottom plates. After a 4-hour incubation, 50 μl of supernatant was collected, and lysis was measured using the Cyto Tox 96 Assay Kit (Promega, Madison, Wis., USA). Background controls for non-specific target and effector cell lysis were included. After background subtraction, percentage of cell lysis was calculated using the formula: 100× (experimental-spontaneous effector-spontaneous target/maximum target-spontaneous target).

[4] = test system: IL-18; conditions: WO 03/099323, cited from earlier work

Molecule | inhibition in tumour size [1] | increase in the levels of IL-18 in the intestine [2] | anti-tumour CTL and/or NK cell activity of splenocytes [3] | serum levels of IL-18 [4] | intestinal IL-18 levels ([4]; compared with recombinant human lactoferrin)
B1 | 11% | ~2 fold | slightly enhanced | – | –
B2 | – | – | – | did not increase | lesser increase
